Measurements as given in the supplement of paper PMC9732359.
± gives the uncertainty stated by the source.

Assay: protein stability index of a GFP-peptide fusion (yeast GPS) (PSI 1-4); higher = more stable; sorted into four equal gates, so the index is relative within each strain
How it was run: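 The protein stability index of a peptide was calculated by multiplying its read frequency in each gate by that gate's number and adding the products. The peptides were tiled 17-residue stretches of yeast proteins, fused downstream of GFP on a Cherry-expressing plasmid and carried in yeast as a pooled library. Mid-log cultures in leucine-free medium were sorted into four equal gates by GFP/Cherry ratio, and each gate's plasmids were PCR-amplified and Illumina-sequenced.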

Sequence | protein stability index (doa10∆) | protein stability index (pdr5∆) | protein stability index (san1∆) | protein stability index (ubr1∆)
SNYAASNSMDRSSSASN [SWI1] | 2.79 ± 0.14 | 2.7 ± 0.089 | 2.88 ± 0.07 | 2.84 ± 0.093
IKQQQQQQQQQNGQQPP [YML103C/NUP188] | 2.31 ± 0.036 | 2.63 ± 0.039 | 2.48 ± 0.04 | 2.39 ± 0.034
KQVLLRLNPYAKVFAAE [RPL4A] | 2.12 ± 0.067 | 2.6 ± 0.11 |  | 2.42 ± 0.074
VSSKPSKPESSVLQLIV [MED1] | 2.73 ± 0.13 | 3.28 ± 0.11 | 2.94 ± 0.073 | 3.27 ± 0.098
YWTQYLGLFIHKISFSG [YJL039C/NUP192] | 1.99 ± 0.076 | 1.8 ± 0.058 | 1.59 ± 0.1 | 1.89 ± 0.05
RVNGSEFVHKYLGEGPR [RPT3] | 2.45 ± 0.057 | 2.88 ± 0.063 | 2.79 ± 0.056 | 3 ± 0.061
IPTTKNLRLLVEENRVR [DLS1] |  | 3.08 ± 0.1 | 2.87 ± 0.097 | 2.12 ± 0.061
IATGCKDGRIRIFKITE [YGL100W/SEH1] | 2.22 ± 0.069 | 2.47 ± 0.066 | 2.21 ± 0.094 | 2.43 ± 0.046
GFEQVKIALGSPIVNVL [RRI2] | 1.56 ± 0.15 | 2.78 ± 0.2 | 1.48 ± 0.25 | 2.52 ± 0.12
VLPAATKKKSKFMTNST [ARP9] | 2.74 ± 0.055 | 2.78 ± 0.046 | 2.71 ± 0.047 | 2.96 ± 0.039
SEEIDSLNEDVEEIKLQ [SMC2] | 3.19 ± 0.12 | 3.41 ± 0.14 | 2.94 ± 0.097 | 3.25 ± 0.077
LLKDDTYQLCVRLRSNV [RPN3] | 1.47 ± 0.076 | 1.85 ± 0.29 |  | 1.25 ± 0.2
LDSTGFDSTAFNATVDE [MED2] | 3.08 ± 0.048 | 3.27 ± 0.053 | 3.06 ± 0.053 | 3.07 ± 0.038
QITKFPKYRDNLATWYH [SSN3] | 2.77 ± 0.065 | 2.88 ± 0.077 | 2.7 ± 0.066 | 2.37 ± 0.041
EFANFELKDICSFAVTK [YML103C/NUP188] | 2.07 ± 0.072 | 2.29 ± 0.065 | 2.22 ± 0.12 | 2.05 ± 0.043
QWSIEIVLLDDEGKEIP [TAF14] | 1.99 ± 0.06 | 2.1 ± 0.06 | 2.71 ± 0.066 | 2.75 ± 0.068
KTYNCLHEKYLTEGGSI [SMC1] | 3.03 ± 0.14 | 3.05 ± 0.072 | 2.52 ± 0.076 | 2.98 ± 0.069
DRVAKVLTYPEKVTRYN [RPO31] | 2.87 ± 0.12 | 2.92 ± 0.14 | 2.94 ± 0.29 | 2.98 ± 0.17
KILSPTMYMEVYTAIYN [CDC53] | 1.58 ± 0.058 | 1.62 ± 0.061 | 1.63 ± 0.08 | 1.74 ± 0.055
TPLSIKIMVAEWYLSHL [SRB8] | 2.83 ± 0.084 | 2.59 ± 0.095 | 2.18 ± 0.092 | 2.5 ± 0.063
EKLLETNVSKQNDFLFS [ECM29] | 2.64 ± 0.1 | 2.97 ± 0.093 | 1.53 ± 0.16 | 1.76 ± 0.089
GFFENIETEFLLFTVKL [IRR1] | 3.12 ± 0.077 | 3.2 ± 0.11 | 3.24 ± 0.049 | 3.12 ± 0.07
IKKYASVVRVLVHTQIR [RPL3] | 1.87 ± 0.064 | 2.32 ± 0.074 | 1.62 ± 0.11 | 2.13 ± 0.044
EISRLKTSLSIKVENLN [SMC2] | 2.76 ± 0.077 | 2.55 ± 0.13 | 2.39 ± 0.17 | 2.56 ± 0.064
TEVSRKSMKYVKKILPL [ECM29] | 2.34 ± 0.28 | 1.5 ± 0.24 |  | 1.18 ± 0.16
YILANHYLSRVLSDQVG [YJL039C/NUP192] | 2.87 ± 0.064 | 2.98 ± 0.078 | 2.72 ± 0.07 | 2.54 ± 0.049
WSFDLPEMSNLYRLSTP [PRP8] | 2.71 ± 0.049 | 2.71 ± 0.04 | 2.59 ± 0.038 | 2.67 ± 0.043

Sequence | protein stability index (doa10∆) | protein stability index (pdr5∆) | protein stability index (san1∆) | protein stability index (ubr1∆)
YDGVERVSLQDIKDFAD [QCR2] | 2.84 ± 0.1 | 2.75 ± 0.1 | 2.5 ± 0.076 | 2.41 ± 0.089
IPSPLSSTKPPGSVNSA [NUT1] | 2.76 ± 0.056 | 2.84 ± 0.058 | 2.86 ± 0.076 | 2.85 ± 0.044
DVETVKREIQEALSEKP [RPC53] | 3.27 ± 0.15 | 3.42 ± 0.12 | 3.17 ± 0.13 | 3.35 ± 0.1
LDLSRSNGVLNVDNQTS [RPS17A] |  | 3.09 ± 0.22 |  | 
KLRSELGYKDTSVIQDL [BRR2] | 2.74 ± 0.13 | 2.22 ± 0.083 | 2.69 ± 0.072 | 2.96 ± 0.083
CSFAVTKSSLNDLDYDL [YML103C/NUP188] | 3.04 ± 0.1 | 3.13 ± 0.091 | 3.01 ± 0.078 | 3.1 ± 0.055
GPEITPEEATTIFSVMV [PRP8] | 2.09 ± 0.13 | 2.37 ± 0.14 | 1.77 ± 0.22 | 2.6 ± 0.13
IIQLILWSIHPSRQFDH [SRB8] | 1.57 ± 0.047 | 1.47 ± 0.049 | 1.59 ± 0.087 | 1.54 ± 0.05
NTLYTAIITDDLDTVLK [SRP72] | 2.19 ± 0.039 | 2.5 ± 0.031 | 2.44 ± 0.041 | 2.6 ± 0.035
NFAHSDSLSVPKVSAGD [SIR4] | 2.95 ± 0.11 | 2.98 ± 0.12 | 2.76 ± 0.054 | 3.27 ± 0.11
SSSTQNVFVILMDKCLP [DIS3] | 1.97 ± 0.085 | 1.96 ± 0.053 | 2.13 ± 0.052 | 1.95 ± 0.043
LNSFVNDIFERIATEAS [HTB1] | 2.95 ± 0.11 | 2.89 ± 0.091 | 2.63 ± 0.1 | 2.96 ± 0.061
NQVGTDELILPLPSHAL [YDL116W/NUP84] | 3.09 ± 0.057 | 3.09 ± 0.045 | 2.83 ± 0.052 | 3.06 ± 0.04
RRNLRYGDRMKLAKNLQ [RPO31] | 3.15 ± 0.091 | 3.38 ± 0.073 | 3.48 ± 0.079 | 3.44 ± 0.067
MVMAGSKGSFINIAQMS [RPO21] | 1.43 ± 0.054 | 1.67 ± 0.049 | 1.25 ± 0.083 | 1.42 ± 0.05
ITGNKIMRILKSNGLAP [RPS13] | 3.01 ± 0.14 | 3.32 ± 0.18 | 2.53 ± 0.16 | 2.91 ± 0.057
ALQKGLKDLMDLCDVVE [RPC19] | 3.44 ± 0.24 | 2.84 ± 0.28 | 2.92 ± 0.13 | 3.02 ± 0.14
IYRYKYKVMHQIRACKD [PRP8] | 2.56 ± 0.099 | 2.14 ± 0.086 | 2.45 ± 0.078 | 1.99 ± 0.088
GKVVGDKWESYLNLLQE [RPB10] | 3.24 ± 0.076 | 2.65 ± 0.086 | 2.49 ± 0.11 | 3.26 ± 0.055
VVFRDPYKYRLREEIFI [RPL2A] | 2.47 ± 0.12 | 2.66 ± 0.098 | 2.01 ± 0.088 | 2.81 ± 0.087
KTTPNTASSEASAGSKE [YMR153W/NUP53] | 2.98 ± 0.052 | 3.34 ± 0.061 | 3.16 ± 0.046 | 3.12 ± 0.038
DSLTQNNNNAPIIIYGT [YOR098C/NUP1] | 2.69 ± 0.047 | 2.93 ± 0.041 | 2.8 ± 0.041 | 2.92 ± 0.038
LYDSLASTPSIRPDGRL [RRP42] | 2.64 ± 0.14 | 2.81 ± 0.096 | 2.4 ± 0.18 | 2.99 ± 0.088
QTPAEKHAFMGTLKKDL [RPL3] | 3.08 ± 0.17 | 3.21 ± 0.062 | 2.96 ± 0.11 | 2.96 ± 0.093
GRKHVAALRTVKSLVDN [RPL9A] | 2.99 ± 0.12 | 3.17 ± 0.079 | 2.91 ± 0.092 | 2.96 ± 0.071
ELNDIDTKIDQVNGNIR [SMC3] | 3.34 ± 0.22 | 3.34 ± 0.12 | 3.07 ± 0.13 | 3.2 ± 0.1
EKFSEKMLKIWTMAFRT [ECM29] | 2 ± 0.11 | 2.09 ± 0.1 | 1.37 ± 0.2 | 1.48 ± 0.09
